Assay results: US20070286859A1 (published 2007)
Read-outs that look alike come from different tables or passages of the source.

Columns and labels:
[1] = molecular target: extracellular region of human F158 FcγRIIIa with C-terminal 6xHis-tag and GST-tag (human, UniProt P08637 17-208); test: SPR, receptor on chip
[2] = molecular target: T1, extracellular region of human V158 FcγRIIIa with C-terminal 6xHis-tag and GST-tag (human, UniProt P08637 17-208); test: SPR, receptor on chip
[3] = molecular target: T1, extracellular region of human V158 …; test: SPR, fold vs WT alemtuzumab
[4] = molecular target: T1, extracellular region of human V158 …; test: AlphaScreen competition, fold vs WT alemtuzumab
[5] = molecular target: T1, extracellular region of human V158 …; test: AlphaScreen competition
[6] = molecular target: T1, extracellular region of human V158 …; test: AlphaScreen competition; remark: listed apart in the source
[7] = molecular target: T1, extracellular region of human V158 …; test: AlphaScreen competition; remark: listed apart in the source

B1: I332E alemtuzumab (antibody)
chain 1: not shown
chain 2: not shown
Question: What does the source list for B1?
Answer: Kd [1]: 72 nM; Kd [2]: 31 nM

B2: S304T alemtuzumab (antibody)
chain 1: not shown
chain 2: not shown
Question: Which “Fold WT” value [3] does the source give for B2 here?
Answer: 12.8 fold

B3: T260H alemtuzumab (antibody)
chain 1: not shown
chain 2: not shown
Question: Which “Fold WT” value [3] does the source give for B3 here?
Answer: 1.86 fold

Question: And the “Fold WT” value [4]?
Answer: 1 fold

B4: E283H alemtuzumab (antibody)
chain 1: not shown
chain 2: not shown
Question: How did the “Fold WT” value [3] turn out when B4 was run?
Answer: 2.31 fold

B5: N297D/A330Y/I332E alemtuzumab (antibody)
chain 1: QVQLQESGPGLVRPSQTLSLTCTVSGFTFTDFYMNWVRQPPGRGLEWIGFIRDKAKGYTTEYNPSVKGRVTMLVDTSKNQFSLRLSSVTAADTAVYYCAREGHTAAPFDYWGQGSLVTVSSASTKGPSVFPLAPSSKSTSGGTAALGCLVKDYFPEPVTVSWNSGALTSGVHTFPAVLQSSGLYSLSSVVTVPSSSLGTQTYICNVNHKPSNTKVDKKVEPKSCDKTHTCPPCPAPELLGGPSVFLFPPKPKDTLMISRTPEVTCVVVDVSHEDPEVKFNWYVDGVEVHNAKTKPREEQYDSTYRVVSVLTVLHQDWLNGKEYKCKVSNKALPYPEEKTISKAKGQPREPQVYTLPPSRDELTKNQVSLTCLVKGFYPSDIAVEWESNGQPENNYKTTPPVLDSDGSFFLYSKLTVDKSRWQQGNVFSCSVMHEALHNHYTQKSLSLSPGK
chain 2: not shown
Question: With B5 as the binder, how does the “affinity as a fraction of glycosylated WT alemtuzumab” value [5] read?
Answer: 0.4 fold

B6: S298A/E333A/K334A alemtuzumab (antibody)
chain 1: QVQLQESGPGLVRPSQTLSLTCTVSGFTFTDFYMNWVRQPPGRGLEWIGFIRDKAKGYTTEYNPSVKGRVTMLVDTSKNQFSLRLSSVTAADTAVYYCAREGHTAAPFDYWGQGSLVTVSSASTKGPSVFPLAPSSKSTSGGTAALGCLVKDYFPEPVTVSWNSGALTSGVHTFPAVLQSSGLYSLSSVVTVPSSSLGTQTYICNVNHKPSNTKVDKKVEPKSCDKTHTCPPCPAPELLGGPSVFLFPPKPKDTLMISRTPEVTCVVVDVSHEDPEVKFNWYVDGVEVHNAKTKPREEQYNATYRVVSVLTVLHQDWLNGKEYKCKVSNKALPAPIAATISKAKGQPREPQVYTLPPSRDELTKNQVSLTCLVKGFYPSDIAVEWESNGQPENNYKTTPPVLDSDGSFFLYSKLTVDKSRWQQGNVFSCSVMHEALHNHYTQKSLSLSPGK
chain 2: not shown
Question: Which results are given for B6?
Answer: Kd [1]: 156 nM; Kd [2]: 39 nM

B7: S239D/N297D/I332E alemtuzumab (antibody)
chain 1: QVQLQESGPGLVRPSQTLSLTCTVSGFTFTDFYMNWVRQPPGRGLEWIGFIRDKAKGYTTEYNPSVKGRVTMLVDTSKNQFSLRLSSVTAADTAVYYCAREGHTAAPFDYWGQGSLVTVSSASTKGPSVFPLAPSSKSTSGGTAALGCLVKDYFPEPVTVSWNSGALTSGVHTFPAVLQSSGLYSLSSVVTVPSSSLGTQTYICNVNHKPSNTKVDKKVEPKSCDKTHTCPPCPAPELLGGPDVFLFPPKPKDTLMISRTPEVTCVVVDVSHEDPEVKFNWYVDGVEVHNAKTKPREEQYDSTYRVVSVLTVLHQDWLNGKEYKCKVSNKALPAPEEKTISKAKGQPREPQVYTLPPSRDELTKNQVSLTCLVKGFYPSDIAVEWESNGQPENNYKTTPPVLDSDGSFFLYSKLTVDKSRWQQGNVFSCSVMHEALHNHYTQKSLSLSPGK
chain 2: not shown
Question: Which “affinity as a fraction of glycosylated WT alemtuzumab” value [5] does the source give for B7 here?
Answer: 0.8 fold

B8: WT alemtuzumab (antibody)
chain 1: not shown
chain 2: not shown
Question: B8 was tested. Which Kd [1] did it give?
Answer: 730 nM

Question: What about the Kd [2] of the same binder?
Answer: 68 nM

B9: S298A alemtuzumab (antibody)
chain 1: not shown
chain 2: not shown
Question: Which results are given for B9?
Answer: Kd [1]: 285 nM; Kd [2]: 52 nM

B10: E272R alemtuzumab (antibody)
chain 1: not shown
chain 2: not shown
Question: Which “Fold WT” value [3] does the source give for B10 here?
Answer: 1.38 fold

B11: V264I alemtuzumab (antibody)
chain 1: not shown
chain 2: not shown
Question: For B11, which Kd [2] is on record?
Answer: 64 nM

B12: S239D alemtuzumab (antibody)
chain 1: not shown
chain 2: not shown
Question: B12 was tested. Which IC50 [6] did it give?
Answer: 0.8 nM

B13: V264I/I332E alemtuzumab (antibody)
chain 1: not shown
chain 2: not shown
Question: How did the Kd [1] turn out when B13 was run?
Answer: 52 nM

Question: What about the Kd [2] of the same binder?
Answer: 17 nM

Question: And the IC50 [7]?
Answer: 0.5 nM

B14: V284E alemtuzumab (antibody)
chain 1: not shown
chain 2: not shown
Question: B14 was tested. Which “Fold WT” value [3] did it give?
Answer: 1.51 fold
